From article PMC10397247

T1: APC1015-AA
T1 chain: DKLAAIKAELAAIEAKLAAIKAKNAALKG

T2: APC1434-AA
T2 chain: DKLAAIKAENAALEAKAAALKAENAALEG

T3: APC2237-AA
T3 chain: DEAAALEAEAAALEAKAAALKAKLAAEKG

T4: APC232-AA
T4 chain: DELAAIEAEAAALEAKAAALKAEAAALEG

T5: APC2405-AA
T5 chain: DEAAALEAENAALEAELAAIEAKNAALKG

T6: APC3645-AA
T6 chain: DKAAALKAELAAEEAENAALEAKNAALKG

T7: APC4011-AA
T7 chain: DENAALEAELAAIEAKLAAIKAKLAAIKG

T8: APC4264-AA
T8 chain: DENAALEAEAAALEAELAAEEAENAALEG

T9: APC4436-AA
T9 chain: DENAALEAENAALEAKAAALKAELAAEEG

T10: APC5383-AA
T10 chain: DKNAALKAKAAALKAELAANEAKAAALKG

T11: APC6108-AA
T11 chain: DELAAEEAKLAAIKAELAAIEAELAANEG

T12: APC7099-AA
T12 chain: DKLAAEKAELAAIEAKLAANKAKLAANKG

T13: APC8191-AA
T13 chain: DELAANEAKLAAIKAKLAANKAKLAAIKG

T14: APC8910-AA
T14 chain: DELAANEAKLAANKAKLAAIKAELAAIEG

T15: APC9096-AA
T15 chain: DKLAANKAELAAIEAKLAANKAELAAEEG

T16: APC9319-AA
T16 chain: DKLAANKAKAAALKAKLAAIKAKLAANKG

T17: P8A-bH
T17 chain: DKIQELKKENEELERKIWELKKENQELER

T18: P9A-bH
T18 chain: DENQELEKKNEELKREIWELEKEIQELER


Legend:
APC1015-AA = biological target: T1, APC1015-AA; assay: two-hybrid library CCmax;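 also: natural log of median RNA to DNA barcode read ratio; higher means stronger binding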
APC1434-AA = biological target: T2, APC1434-AA; assay: two-hybrid library CCmax; settings: mean of both orientations;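 also: natural log of median RNA to DNA barcode read ratio; higher means stronger binding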
APC2237-AA = biological target: T3, APC2237-AA; assay: two-hybrid library CCmax; settings: mean of both orientations;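 also: natural log of median RNA to DNA barcode read ratio; higher means stronger binding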
APC232-AA = biological target: T4, APC232-AA; assay: two-hybrid library CCmax; settings: mean of both orientations;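 also: natural log of median RNA to DNA barcode read ratio; higher means stronger binding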
APC2405-AA = biological target: T5, APC2405-AA; assay: two-hybrid library CCmax; settings: mean of both orientations;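 also: natural log of median RNA to DNA barcode read ratio; higher means stronger binding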
APC3645-AA = biological target: T6, APC3645-AA; assay: two-hybrid library CCmax; settings: mean of both orientations;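 also: natural log of median RNA to DNA barcode read ratio; higher means stronger binding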
APC4011-AA = biological target: T7, APC4011-AA; assay: two-hybrid library CCmax; settings: mean of both orientations
APC4264-AA = biological target: T8, APC4264-AA; assay: two-hybrid library CCmax; settings: mean of both orientations
APC4436-AA = biological target: T9, APC4436-AA; assay: two-hybrid library CCmax; settings: mean of both orientations
APC5383-AA = biological target: T10, APC5383-AA; assay: two-hybrid library CCmax; settings: mean of both orientations
APC6108-AA = biological target: T11, APC6108-AA; assay: two-hybrid library CCmax; settings: mean of both orientations
APC7099-AA = biological target: T12, APC7099-AA; assay: two-hybrid library CCmax; settings: mean of both orientations
APC8191-AA = biological target: T13, APC8191-AA; assay: two-hybrid library CCmax; settings: mean of both orientations
APC8910-AA = biological target: T14, APC8910-AA; assay: two-hybrid library CCmax; settings: mean of both orientations
APC9096-AA = biological target: T15, APC9096-AA; assay: two-hybrid library CCmax; settings: mean of both orientations
APC9319-AA = biological target: T16, APC9319-AA; assay: two-hybrid library CCmax; settings: mean of both orientations
P8A-bH = biological target: T17, P8A-bH; assay: two-hybrid library CCNG1
P9A-bH = biological target: T18, P9A-bH; assay: two-hybrid library CCNG1

| interaction score (APC1015-AA) | interaction score (APC1434-AA) | interaction score (APC2237-AA) | interaction score (APC232-AA) | interaction score (APC2405-AA) | interaction score (APC3645-AA) | interaction score (APC4011-AA) | interaction score (APC4264-AA) | interaction score (APC4436-AA) | interaction score (APC5383-AA) | interaction score (APC6108-AA) | interaction score (APC7099-AA) | interaction score (APC8191-AA) | interaction score (APC8910-AA) | interaction score (APC9096-AA) | interaction score (APC9319-AA) | interaction score (P8A-bH) | interaction score (P9A-bH) | Binder |
| --- | --- | --- | --- | --- | --- | --- | --- | --- | --- | --- | --- | --- | --- | --- | --- | --- | --- | --- |
| -0.544 | -1.58 | -0.0287 | 0.0398 | -1.26 | -1.79 | 1.66 | -1.82 | -1.14 | -1.69 | 0.792 | -2.02 | -1.8 | -1.34 | -1.67 | -1.82 | – | – | DKLAAIKAELAAIEAKLAAIKAKNAALKG [APC1015-AA] |
| – | – | – | – | – | – | – | – | – | – | – | – | – | – | – | – | 0.54 | -0.34 | DKIQELKKENEELERKIWELKKENQELER [P8A-bH] |
